Reference: paper PMC4994250

Target: human CASKIN2 SAM1-SAM2 tandem (483-634), G537D/K540E double mutant (human) (UniProt Q8WXE0)
Assay: AUC; sedimentation velocity, 300 mM NaCl, 20 mM sodium phosphate pH 7.8, 20 °C, 50,000 rpm; 10 and 34 μM loading, Kd fitted from the 34 μM experiment; monomer-dimer equilibrium (dimer to monomers)

- Kd: 99.8 µM
Substance: human CASKIN2 SAM1-SAM2 tandem (483-634), G537D/K540E double mutant (from UniProt Q8WXE0 483-634) (domain or fragment)
